Holding throughout (conditions): remark: other sources report otherwise
For experiment [1], the target named is SARS-CoV Spike trimer (Table A) (SARS-CoV), P59594. The experiment can be described thus: ELISA, purified IgG. (An ELISA detects its analyte on a solid surface through an enzyme-linked reagent.)
Experiment [2] has as its target SARS-CoV-2 RBD (Table A) (SARS-CoV-2), P0DTC2. Put plainly: ELISA, purified IgG.
Experiment [3] addresses SARS-CoV-2 S receptor-binding domain (SRBD), residues 319-541 (SARS-CoV-2), P0DTC2. Put plainly: ELISA on coated antigen.

B1: COV2-2130 (antibody, V domains shown)
VH: EVQLVESGGGLVKPGGSLRLSCAASGFTFRDVWMSWVRQAPGKGLEWVGRIKSKIDGGTTDYAAPVKGRFTISRDDSKNTLYLQMNSLKTEDTAVYYCTTAGSYYYDTVGPGLPEGKFDYWGQGTLVTVSS
VL: not shown
B1 displayed an ELISA OD 450 nm in experiment [1] of 0.1 OD 450 nm.

B2: COV2-2391 (antibody, V domains shown)
VH: QVQLVQSGAEVKKPGASVKVSCKASGYTFGSFDINWVRQATGQGLEWMGRMNSNSGNTAYAQKFQGRVTMTRDTSTNTAYMELSSLRSEDTAMYYCARMRSGWPTHGRPDDFWGRGTLVTVSS
VL: QSVLTQAPSASGTPGQRVTISCSGSNSNIGSYTINWYQQLPGTAPKLLIYGNDQRTSGVPDRFSGSKFGTSASLAISGLQSEDENNYYCAVWDDSLNGLVFGGGTKLTVL
Take B2: the values for the ELISA OD 450 nm in experiment [2] and in experiment [1] were 3.65 OD 450 nm and 0.1 OD 450 nm, respectively.

B3: COV2-2096 (antibody, V domains shown)
VH: B2 VH
VL: B2 VL
Regarding B3, in experiment [3], the EC50 (usually the concentration at which the effect is half-maximal) worked out at 1 ng/mL. Besides, the figures for the ELISA OD 450 nm in experiment [2] and in experiment [1] were 4.3 OD 450 nm and 0.11 OD 450 nm, respectively.

B4: COV2-2952 (antibody, V domains shown)
VH: EVQLVESGGGLVQPGGSLRLSCAASGLTVRSNYMTWVRQTPGKGLEWVSVIYSGGSTFYADSVKGRFTISRDNSKNTVYLQMNSLRAEDTAVYYCARDLVTYGLDVWGQGTTVTVSS
VL: DIQLTQSPSFLSASVGDRVTITCRASQGISNYLAWYQQKPGTAPNLLIYAASTLQSGVPSRFSGSGSGTEFTLTISSLQPEDFATYYCQLLNSHPLTFGQGTRLEIK
Take B4: the ELISA OD 450 nm was 3.55 OD 450 nm in experiment [2] and 0.15 OD 450 nm in experiment [1].

B5: COV2-2165 (antibody, V domains shown)
VH: B4 VH
VL: B4 VL
B5: in experiment [3], the EC50 was determined as 0.6 ng/mL. Further, the ELISA OD 450 nm turned out to be 4.2 OD 450 nm in experiment [2] and 0.17 OD 450 nm in experiment [1].

The record behind these values is patent publication US20210300999A1.
